One block for each molecule: values may come before it. Positions of bridges follow the written chain, without caps; N, C: chain ends. Residues, ends and D or L forms follow the SMILES beside them. No end group written: not given here.
How the values were obtained:
LRP6 E1 = target: T1, LRP6 E1 (Homo sapiens, UniProt O75581); assay: Synthetic peptide competition binding to LRP6 E1; details: synthetic peptides
T1 construct: construct E1-amino acids A20-D325 of LPR6; made in house; host or cells: Tni insect cells (baculovirus, secreted)
T1 sequence (O75581 20-325): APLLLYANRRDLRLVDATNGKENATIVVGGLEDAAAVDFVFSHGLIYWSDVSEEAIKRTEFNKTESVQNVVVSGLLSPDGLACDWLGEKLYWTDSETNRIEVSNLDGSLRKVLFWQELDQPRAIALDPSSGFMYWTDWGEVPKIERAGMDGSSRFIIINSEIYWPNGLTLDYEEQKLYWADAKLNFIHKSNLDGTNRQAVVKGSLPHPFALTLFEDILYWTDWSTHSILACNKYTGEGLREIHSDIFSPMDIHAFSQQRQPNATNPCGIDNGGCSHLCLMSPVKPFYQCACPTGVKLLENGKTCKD
Method: Alternatively, affinities were determined by fluorescence polarization (FP). A fluorescein-modified peptide probe (30 nM) was mixed with LRP5 or LRP6 E1 domain at a concentration suitable for the affinity of the particular target-probe combination (approximately Kd). Competing test agent (protein or peptide) was then added and FP monitored as a function of concentration of the test agent Inhibition constants were obtained by fitting the resulting curves to standard equations using the program KaleidaGraph (Synergy Software).
Peptide affinities were also determined by competition with phage displaying a binding peptide (competition phage ELISA). Serial dilutions of test peptide were mixed with an appropriate (non-saturating) concentration of phage before exposing the mixture to target and allowing it to reach equilibrium. After washing to remove unbound material, bound phage were detected by incubation with anti-M13 antibody-horseradish peroxidase (HRP) conjugate and exposure to a suitable colorometric HRP substrate.
Finally, peptide affinities were also determined by competition ELISA. Maxi-Sorb plates (Nunc) were coated with streptavidin or NeutrAvidin (5 μg/mL in phosphate-buffered saline (PBS); overnight, 4° C.) then blocked with 0.2% bovine serum albumin (BSA) in PBS (1 h, room temperature). A solution (500 nM in PBS) of biotinylated E1-binding peptide Ac-[…](biotin)-am (disulfide) was added to each well for 30 min, and the wells were then washed 3× with PBS containing 0.05% Tween-20 to remove excess peptide. His-tagged E1 domain or FLAG-tagged E1E2 protein (5-10 nM final concentration) was preincubated for 15 minutes with serially diluted test peptide before addition of the mixture to wells of the assay plate for 30 min. Wells were washed and then probed for bound LRP6 by addition of Qiagen penta His-HRP conjugate or Sigma anti-FLAG M2 HRP conjugate (1:2000 dilution in PBS, 0.2% BSA, 0.05% Tween-20) for 30 min. After washing, TMB substrate was added (Kirkegaard and Perry Laboratories). Wells were quenched with 1 M H3PO4 and plates read at 450 nm. […]

[1] = target: T2, human LRP6 construct E1 (amino acids A20-D325) (human, UniProt O75581 20-325); assay: X-ray co-crystal structure
T2 construct: range 20-325; In the Fab crystal E1 arose from E1E2 degraded beyond Arg 335; residues Ala20 to Lys324 were traced; also called LRP6 E1; E1 domain
T2 sequence (looked up): T1 sequence (O75581 20-325)
From the text: The diffraction data were collected using a monochromatic X-ray beam (12398.1 eV) at the Advanced Light Source (ALS) beam line 5.0.2. The X-ray detection device was an ADSC quantum-210 CCD detector placed 350 mm away from the crystal. Alternatively, data were collected at Stanford Synchrotron Radiation Laboratory (SSRL71), Advanced Photon Souce (APS211DF), or in-house using a Rigaku X-ray generator model 007HF coupled to a Rigaku CCD camera (007HF/Saturn 944+). Prior to data collection, crystals were transferred into cryo-protective solutions containing 25% glycerol, followed by flash freezing in liquid nitrogen. Rotation method was applied to a single crystal for collection of the complete data set, with 1° oscillation per frame and total wedge size of 180°. The data were then indexed, integrated, and scaled using program HKL2000 (45). The LRP6 E1/Fab structure was phased by the molecular replacement (MR) method using program Phaser (CCP4, Daresbury, England). […] The search models of Fab subunits were derived from the crystal structure of an HGFA/Fab complex (46). The search model of the β-propeller domain was a homology model generated through the ESyPred3D web server (47); the structure of the extracellular domain of LDL receptor (48) was used as the homology modeling template. […] LRP6-peptide complex structures were determined by molecular replacement, using the LRP6E1 domain from the Fab complex as the search model. Peptides were built manually into the electron density. Manual rebuilding was done with the program COOT (49). Structure refinement was carried out with programs REFMAC5 (50) and PHENIX (51) using the maximum likelihood target functions, anisotropic individual B-factor refinement (peptide complexes only.

[2] = system: LRP6 E1E2 variants with LRP5 BMD substitutions; assay: Steady-state affinity for LRP6 E1E2 variants carrying LRP5 BMD substitutions; format: binding, human
Method: FIG. 13. Introduction of LRP5 BMD substitutions into LRP6 E1E2 lowers affinity for Wnt inhibitors. The five substitutions characterized are indicated on the y-axis. Steady-state affinity measurements were made for Wnt9b, Dkk1, and sclerostin binding to each of the LRP6 variants.
(§1) Binding kinetics were measured by biolayer interferometry using an Octet Red instrument (ForteBio) as previously described (11). Streptavidin (SA) biosensors were loaded with biotinylated hLRP6 in 50 mMTris, pH 8, 300 mM NaCl, 5% (v/v) glycerol, and 0.05% (w/v) Triton X-100. The loaded biosensors were washed in the same buffer before carrying out association and dissociation measurements for the indicated times. The Kd of each interaction was determined using steady state-analysis through the Octet Red software v6.3. Each reported value represents an average of three or more experiments at different concentrations, with a fitted experimental curve for which the square of the correlation coefficient (R^2) is above 0.96.
Cells transfected with LRP5 variants carrying BMD mutations show reduced binding to sclerostin and are less sensitive to sclerostin inhibition of Wnt10b or Wnt6 signaling (70). To further test the effects of the BMD substitutions, we introduced several of them into LRP6 E1E2, with the results shown in FIG. 13. LRP6 E1E2 Gly158Val could not be expressed in insect cells. […] Importantly, not only is the binding to sclerostin affected (70), but the binding of Dkk1 to its E1 interaction site is also impaired.

[3] = target: T3, human LRP6 construct E1E2 (amino acids A20-E631) (human, UniProt O75581 20-631, biotinylated for biolayer interferometry); assay: BLI affinity
T3 construct: range 20-631; also called LRP6 E1E2
T3 sequence (looked up): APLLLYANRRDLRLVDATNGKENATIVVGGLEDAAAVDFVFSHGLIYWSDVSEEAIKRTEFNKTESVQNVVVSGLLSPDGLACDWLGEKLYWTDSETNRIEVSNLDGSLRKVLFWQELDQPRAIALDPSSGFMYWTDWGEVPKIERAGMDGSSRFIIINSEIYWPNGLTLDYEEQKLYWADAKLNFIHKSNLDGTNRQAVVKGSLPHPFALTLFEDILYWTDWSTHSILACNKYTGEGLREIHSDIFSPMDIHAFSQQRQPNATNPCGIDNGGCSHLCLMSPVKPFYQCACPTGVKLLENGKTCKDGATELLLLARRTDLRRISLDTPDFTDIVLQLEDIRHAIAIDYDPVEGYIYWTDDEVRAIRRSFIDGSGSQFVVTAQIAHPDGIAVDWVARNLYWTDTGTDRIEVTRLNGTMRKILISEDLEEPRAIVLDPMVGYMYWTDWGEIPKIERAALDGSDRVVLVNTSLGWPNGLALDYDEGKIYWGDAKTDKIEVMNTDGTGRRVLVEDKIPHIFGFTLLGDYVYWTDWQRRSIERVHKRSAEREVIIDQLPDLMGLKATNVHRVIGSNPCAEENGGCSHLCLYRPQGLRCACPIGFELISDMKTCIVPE
Method: as §1, with “(R²)” for “(R^2)”

Wnt1-dependent signaling = assay: Wnt-dependent TOPbrite luciferase reporter assay, cells transfected with Wnt1; format: cell-based; details: cells stably transfected with reporter, transiently with Wnt1
Method: FIG. 12. Induction of a Wnt/β-catenin reporter in the presence or absence of wild-type and mutant inhibitors. Cells were transfected by Wnt1 (binds to LRP6 E1E2). Dkk1 and sclerostin variants, or the control inhibitor Fz8 CRD, were used at the indicated doses.
Wnt signaling was assessed either in mouse fibroblast L-cells or in HEK293s cells. The luciferase reporter assay in 293 cells was performed as described (52). The mouse fibroblast L-cell imaging assay was conducted essentially as described(53). Cells were treated with Wnt3a, Fz8 CRD ((US Patent Publication 20080299136; (54), LRP6, or Dkk1, or combinations of these proteins, as indicated and processed after an additional 6 h at 37° C./5% CO2.
To test whether the observed effects on binding between purified proteins were relevant to cellular signaling, Dkk1 and sclerostin activities were tested further in a Wnt-dependent TOPbrite luciferase reporter assay (52). Cells stably transfected with reporter were transfected transiently with Wnt1. The Wnt-transfected cells were treated with purified Dkk1 or sclerostin variants, and the effect on reporter induction was measured (FIG. 12). […] This is consistent with earlier observations that Wnt1 belongs to a class of Wnts signaling through the E1E2 portion of to LRP5/6 (11, 52). The Dkk1 and sclerostin mutants show activities consistent with their binding to LRP6 (FIG. 12). Sclerostin Ile119Glu (“NXI” motif) is impaired relative to wild-type in its ability to inhibit Wnt1-driven signaling, as is Dkk1 Ile42Glu.

Molecule: amide-cyclized variant of the Dkk1 7-mer peptide: Dkk1 7-mer with Ser2 substituted by Lys and Asn7 by Asp, side chains joined by an amide bond (NKNAIKD; lactam 2-7)
binding / affinity for LRP6 E1 (in words) (LRP6 E1; listed as cyclized peptide): binds
binding / affinity for LRP6 E1 (in words) (LRP6 E1; listed as target cyclic peptide): affinity equivalent to the parent Dkk1 peptide

Molecule: CC[C@H](C)[C@@H]1NC(=O)[C@H](CO)NC(=O)[C@H](CC(N)=O)NC(=O)[C@H]([C@@H](C)O)NC(=O)[C@@H](NC(=O)[C@@H](N)CO)CSSC[C@@H](C(=O)N[C@@H](Cc2ccc(O)cc2)C(=O)NCC(=O)O)NC(=O)[C@H](CCC(N)=O)NC(=O)[C@@H]2CCCN2C(=O)[C@@H]2CCCN2C1=O [BBI mimetic] (H-SCTNSIPPQCYG-OH; disulfide 2-10; N-terminus and C-terminus assumed)
binding / affinity for LRP6 E1 (in words) (LRP6 E1): binds

B2: Wnt9b: Wnt9b, carrier-free protein from R&D Systems (protein, UniProt O14905 23-357, looked up)
Protein Wnt-9b: SYFGLTGREVLTPFPGLGTAAAPAQGGAHLKQCDLLKLSRRQKQLCRREPGLAETLRDAAHLGLLECQFQFRHERWNCSLEGRMGLLKRGFKETAFLYAVSSAALTHTLARACSAGRMERCTCDDSPGLESRQAWQWGVCGDNLKYSTKFLSNFLGSKRGNKDLRARADAHNTHVGIKAVKSGLRTTCKCHGVSGSCAVRTCWKQLSPFRETGQVLKLRYDSAVKVSSATNEALGRLELWAPARQGSLTKGLAPRSGDLVYMEDSPSFCRPSKYSPGTAGRVCSREASCSSLCCGRGYDTQSRLVAFSCHCQVQWCCYVECQQCVQEELVYTCKH
effect of LRP6 BMD mutations on binding to LRP6 E1E2 (in words) [2]: little to no effect
change in affinity for the LRP6 E1E2 BMD variants compared to wild type ([2]; five substitutions characterized): ≤ 5 fold

B4: Sclerostin Ile119Glu (ligand, UniProt Q9BQB4 24-213, looked up)
chain: QGWQAFKNDATEIIPELGEYPEPPPELENNKTMNRAENGGRPPHHPFETKDVSEYSCRELHFTRYVTDGPCRSAKPVTELVCSGQCGPARLLPNAEGRGKWWRPSGPDFRCIPDRYRAQRVQLLCPGGEAPRARKVRLVASCKCKRLTRFHNQSELKDFGTEAARPQKGRKPRPRARSAKANQAELENAY
notes: also called sclerostin I119E
fold loss in affinity against wild-type sclerostin [3]: 19 fold
inhibition of Wnt1-dependent signaling (reporter induction) (Wnt1-dependent signaling): impaired

The remaining lines, values ahead:

binding result [1]: binds
B1: Ac-SNSIKFYA-am (peptide)
peptide: Ac-SNSIKFYA-NH2
notes: also called linear peptide from Exemplary Family 1; parent Ile peptide

binding result [1]: binds
B3: Ac-CNSIKCL-am (disulfide) (peptide)
peptide: Ac-CNSIKCL-NH2
modifications: disulfide 1-6 (inferred)
notes: also called CX4C class member of Exemplary Family 2

binding result [1]: binds
B5: Ac-CNSIKLC-am (disulfide) (peptide)
peptide: Ac-CNSIKLC-NH2
modifications: disulfide 1-7 (inferred)
notes: also called CX5C class member of Exemplary Family 2

binding result [1]: binds
B6: Ac-GSLCSNRIKPDTHCSS-am (disulfide) (peptide)
peptide: Ac-GSLCSNRIKPDTHCSS-NH2
modifications: disulfide 4-14 (inferred)
notes: also called Peptide C; CX9C class member of Exemplary Family 2
